According to patent publication US20110165161A1, “ANTI-EPCAM ANTIBODIES THAT INDUCE APOPTOSIS OF CANCER CELLS AND METHODS USING SAME” (priority 2009, published 2011):

B1: 1F10: murine anti-human EpCAM monoclonal antibody (IgG1, λ1), hybridoma m338-1F10.3; VH SEQ ID NO:11, VL SEQ ID NO:13 (antibody, listed as Mus musculus, V domains shown)
VH: EVKLLESGGGLVQPGGSLKLSCAASGFDFSRYWMSWVRQAPGKGLEWIGEINPDSSTMNYTPSLKDKFIISRDNAKNTLYLQMSKVRSEDTALYYCARGAYAMDYWGQGTSVTVSS
VL: QAVVTQESALTTSPGETVTLTCRSSTGAVTTSNNANWVQEKPDHLFTGLIGATNNRAPGVPARFSGSLIGDKAALTITGAQTEDEAIYFCALWYINHWVFGGGTKLTVLG
B2: 1G10: murine anti-human EpCAM monoclonal antibody (IgG1, K), hybridoma m290-1G10; VH SEQ ID NO:7, VL SEQ ID NO:9 (antibody, listed as Mus musculus, V domains shown)
VH: QIQLVQSGPELKKPGETVKISCKASGYTFTNYGMNWVKQAPGKGFKWMGWINTYTGEPTYADDFKGRFAFSLETSASTAYLQINNLQNEDMATYFCARWGYDFDYWGQGTTLTVSS
VL: QIVLTQSPAIMSSSPGEKVTMTCSASSSISYMNWYQQKPGTSPKRWIYDTSKLASGVPARFSGSGSGTSYSLTISSMEAEDAATYYCHQRSSYPYTFGGGTKLEIKR

Legend:
CHO parental cells = test: FACS binding of anti-EpCAM antibodies to CHO parental cells; design: species or system Chinese hamster; conditions: antibody 0.1 μg/ml; HPS at 300x dilution
Procedure: 1×10^5 CHO/EpCAM or CHO parental cells were seeded in each well of a v-bottomed 96-well plate and incubated with purified anti-EpCAM antibodies or mouse IgG control antibody 9E10 at concentration of 0.1 μg/ml. A 300× dilution of human cell hyper-immune serum (HPS 300×) was used as binding positive control for both cell lines here. After 1 hr incubation at 4° C., cells were washed twice with 200 μl FACS buffer (1×PBS containing 1% FBS), stained with 100 μl of 1 μg/ml goat-anti-mouse IgG-PE (Southern Biotech, Cat. No. 1032-09) in FACS buffer and then incubated at 4° C. for 30 min. Cells were washed thrice with FACS buffer and analyzed by flow cytometry (BD LSR, BD Life Sciences).

[1] = system: Breast cancer T-47D cells; test: Antibody cytotoxicity assay (Annexin V + PI), T-47D; format: cell-based; conditions: for Induction of cell death (in words): 1, 3 and 10 μg/ml, overnight; for Cytotoxic effect (Annexin V + PI staining, dead cells): 17-20 hr
Procedure: (§1) After a 17-20 hr incubation at 37° C., cells were stained with 0.3 μl of FITC-conjugated Annexin V (Strong Biotech Corp. Cat. No. AVK250) in 50 μl Annexin V binding buffer (Strong Biotech Corp. Cat. No. AVK250) at RT for 20 min. After wash, the cells were then stained with 0.3 μl of propidium iodide in 200 μl Annexin V binding buffer. Annexin V and Propidium Iodide were used as a joint indicator for cell death. The data were acquired with BD FACSCalibur based on an acquisition of 3,000-5,000 cells and analyzed with the Cell Quest software. The combined percentages of the Annexin V+/PI+, Annexin V+/PI− and Annexin V−/PI+populations were considered as dead cells.

[2] = system: Gastric cancer NCI-N87 cells; test: Antibody cytotoxicity assay (Annexin V + PI), NCI-N87; format: cell-based; conditions: for Induction of cell death (in words): 1, 3 and 10 μg/ml, overnight; for Cytotoxic effect (Annexin V + PI staining, dead cells): 17-20 hr
Procedure: as §1

[3] = system: Lung cancer NCI-H520 cells; test: Antibody cytotoxicity assay (Annexin V + PI), NCI-H520; format: cell-based; conditions: for Induction of cell death (in words): 1, 3 and 10 μg/ml, overnight; for Cytotoxic effect (Annexin V + PI staining, dead cells): 17-20 hr
Procedure: as §1

[4] = system: Prostate cancer LNCaP cells; test: Antibody cytotoxicity assay (Annexin V + PI), LNCaP; format: cell-based; conditions: for Induction of cell death (in words): 1, 3 and 10 μg/ml, overnight; for Cytotoxic effect (Annexin V + PI staining, dead cells): 17-20 hr
Procedure: as §1

[5] = system: Pharynx cancer FaDu cells; test: Antibody cytotoxicity assay (Annexin V + PI), FaDu; format: cell-based; conditions: for Induction of cell death (in words): 1, 3 and 10 μg/ml, overnight; for Cytotoxic effect (Annexin V + PI staining, dead cells): 17-20 hr
Procedure: as §1

[6] = system: Ovarian cancer NIH:OVCAR-3 cells; test: Antibody cytotoxicity assay (Annexin V + PI), NIH:OVCAR-3; format: cell-based; conditions: for Induction of cell death (in words): 1, 3 and 10 μg/ml, overnight; for Cytotoxic effect (Annexin V + PI staining, dead cells): 17-20 hr
Procedure: as §1

[7] = system: NCI-H358 lung cancer cells; test: Cell death in NCI-H358 lung cancer cells (Annexin V + PI); format: cell-based, human; conditions: mAb 10 μg/ml, 17 hr; for % of Annexin V + PI staining (untreated background subtracted), Mean ± SEM: mean of 5 experiments
Procedure: (§2) 5×10^4 NCI-H358 cells were seeded to each well of a 96-well plate, and then 10 μg/ml of anti-EpCAM or control (9E10) mAbs diluted in the medium was added into the cells. After a 17-hr incubation at 37° C., the cells were stained with 0.3 μl of FITC-conjugated Annexin V (Strong Biotech Corp. Cat. No. AVK250) in 50 μl Annexin V binding buffer (Strong Biotech Corp. Cat. No. AVK250) at RT for 20 min. After wash, the cells were then stained with 0.3 μl of propidium iodide in 200 μl Annexin V binding buffer. Annexin V and Propidium Iodide were used as a joint indicator for measuring cell death. The data were acquired with BD FACSCalibur based on an acquisition of 3,000-5,000 cells and analyzed with the Cell Quest software. The combined percentages of the Annexin V+/PI+, Annexin V+/PI− and Annexin V−/PI+populations were considered as dead cells.

[8] = system: COLO 205 colon cancer cells; test: Cytotoxicity of anti-EpCAM antibodies in combination with oxaliplatin in COLO 205; format: cell-based, human; conditions: 24 hr
Procedure: as §2, with “Oxaliplatin, combined with infusional administration of 2 other chemotherapy drugs, 5-fluorouracil/leucovorin (5-FU/LV), is now considered as one of the as first-line treatments for people with advanced carcinoma of the colon or rectum (André et al. (2004) N Engl J Med 350(23):2343-2351). To test the cytotoxicity of anti-EpCAM antibodies in the presence of oxaliplatin, 1×10^5 COLO 205 cells” for “5×10^4 NCI-H358 cells”, “then 0.03, 0.3 and 3” for “then 10”, “mAbs in combination with oxaliplatin at concentration of 0, 0.01, 0.1, and 1 μg/ml” for “mAbs”, “medium were” for “medium was”, “a 24-hr” for “a 17-hr”

[9] = mAb 0.03 μg/ml, oxaliplatin 0 μg/ml
[10] = mAb 0.3 μg/ml + oxaliplatin 1 μg/ml
[11] = mAb 0.3 μg/ml, oxaliplatin 0 μg/ml
[12] = mAb 3 μg/ml + oxaliplatin 0.01 μg/ml
[13] = mAb 3 μg/ml + oxaliplatin 1 μg/ml
[14] = mAb 3 μg/ml, oxaliplatin 0 μg/ml

Row | Molecule | Binding (FACS, Mean fluorescence intensity (MFI)) CHO (CHO parental cells) | Induction of cell death (in words) [1] | Cytotoxic effect (Annexin V + PI staining, dead cells) ([1]; mAb 1.0 μg/ml) [%] | Cytotoxic effect (Annexin V + PI staining, dead cells) ([1]; mAb 3.0 μg/ml) [%] | Cytotoxic effect (Annexin V + PI staining, dead cells) ([1]; mAb 10 μg/ml) [%] | Induction of cell death (in words) [2] | Cytotoxic effect (Annexin V + PI staining, dead cells) ([2]; mAb 1.0 μg/ml) [%] | Cytotoxic effect (Annexin V + PI staining, dead cells) ([2]; mAb 3.0 μg/ml) [%] | Cytotoxic effect (Annexin V + PI staining, dead cells) ([2]; mAb 10 μg/ml) [%] | Induction of cell death (in words) [3] | Cytotoxic effect (Annexin V + PI staining, dead cells) ([3]; mAb 1.0 μg/ml) [%] | Cytotoxic effect (Annexin V + PI staining, dead cells) ([3]; mAb 3.0 μg/ml) [%] | Cytotoxic effect (Annexin V + PI staining, dead cells) ([3]; mAb 10 μg/ml) [%] | Induction of cell death (in words) [4] | Cytotoxic effect (Annexin V + PI staining, dead cells) ([4]; mAb 1.0 μg/ml) [%] | Cytotoxic effect (Annexin V + PI staining, dead cells) ([4]; mAb 3.0 μg/ml) [%] | Cytotoxic effect (Annexin V + PI staining, dead cells) ([4]; mAb 10 μg/ml) [%] | Induction of cell death (in words) [5] | Cytotoxic effect (Annexin V + PI staining, dead cells) ([5]; mAb 1.0 μg/ml) [%] | Cytotoxic effect (Annexin V + PI staining, dead cells) ([5]; mAb 3.0 μg/ml) [%] | further results
1 | B1 | 6 | substantial cell death | 51 | 50 | 50 | substantial cell death | 57 | 57 | 57 | substantial cell death | 40 | 46 | 57 | substantial cell death | 47 | 53 | 48 | substantial cell death | 44 | 42 | Cytotoxic effect (Annexin V + PI staining, dead cells) ([5]; mAb 10 μg/ml): 45%; Induction of cell death (in words) [6]: substantial cell death; Cytotoxic effect (Annexin V + PI staining, dead cells) ([6]; mAb 1.0 μg/ml): 53%; Cytotoxic effect (Annexin V + PI staining, dead cells) ([6]; mAb 3.0 μg/ml): 57%; Cytotoxic effect (Annexin V + PI staining, dead cells) ([6]; mAb 10 μg/ml): 59%; % of Annexin V + PI staining (untreated background subtracted) ([7]; Exp1): 32%; % of Annexin V + PI staining (untreated background subtracted) ([7]; Exp2): 30%; % of Annexin V + PI staining (untreated background subtracted) ([7]; Exp3): 40%; % of Annexin V + PI staining (untreated background subtracted) ([7]; Exp4): 39%; % of Annexin V + PI staining (untreated background subtracted) ([7]; Exp5): 37%; % of Annexin V + PI staining (untreated background subtracted), Mean ± SEM [7]: 35.6 ± 2.0%; % of Annexin V + PI staining (untreated background subtracted) ([8]; mAb 0.03 μg/ml + oxaliplatin 0.01 μg/ml): −1%; % of Annexin V + PI staining (untreated background subtracted) ([8]; mAb 0.03 μg/ml + oxaliplatin 1 μg/ml): 5%; % of Annexin V + PI staining (untreated background subtracted) [8, 9]: −1%; % of Annexin V + PI staining (untreated background subtracted) [8, 10]: 22%; % of Annexin V + PI staining (untreated background subtracted) [8, 11]: 6%; % of Annexin V + PI staining (untreated background subtracted) [8, 12]: 52%; % of Annexin V + PI staining (untreated background subtracted) ([8]; mAb 3 μg/ml + oxaliplatin 0.1 μg/ml): 57%; % of Annexin V + PI staining (untreated background subtracted) [8, 13]: 61%; % of Annexin V + PI staining (untreated background subtracted) [8, 14]: 54%
2 | B2 | 5 | substantial cell death | 45 | 58 | 64 | substantial cell death | 50 | 60 | 60 | substantial cell death | 32 | 41 | 55 | substantial cell death | 42 | 55 | 45 | substantial cell death | 40 | 50 | Cytotoxic effect (Annexin V + PI staining, dead cells) ([5]; mAb 10 μg/ml): 51%; Induction of cell death (in words) [6]: substantial cell death; Cytotoxic effect (Annexin V + PI staining, dead cells) ([6]; mAb 1.0 μg/ml): 40%; Cytotoxic effect (Annexin V + PI staining, dead cells) ([6]; mAb 3.0 μg/ml): 50%; Cytotoxic effect (Annexin V + PI staining, dead cells) ([6]; mAb 10 μg/ml): 52%; % of Annexin V + PI staining (untreated background subtracted) ([7]; Exp1): 46%; % of Annexin V + PI staining (untreated background subtracted) ([7]; Exp2): 42%; % of Annexin V + PI staining (untreated background subtracted) ([7]; Exp3): 48%; % of Annexin V + PI staining (untreated background subtracted) ([7]; Exp4): 47%; % of Annexin V + PI staining (untreated background subtracted) ([7]; Exp5): 42%; % of Annexin V + PI staining (untreated background subtracted), Mean ± SEM [7]: 45.0 ± 1.3%; % of Annexin V + PI staining (untreated background subtracted) ([8]; mAb 0.03 μg/ml + oxaliplatin 0.1 μg/ml): 2%; % of Annexin V + PI staining (untreated background subtracted) [8, 9]: 2%; % of Annexin V + PI staining (untreated background subtracted) ([8]; mAb 0.3 μg/ml + oxaliplatin 0.01 μg/ml): 4%; % of Annexin V + PI staining (untreated background subtracted) ([8]; mAb 0.3 μg/ml + oxaliplatin 0.1 μg/ml): 5%; % of Annexin V + PI staining (untreated background subtracted) [8, 10]: 10%; % of Annexin V + PI staining (untreated background subtracted) [8, 11]: 5%; % of Annexin V + PI staining (untreated background subtracted) [8, 12]: 38%; % of Annexin V + PI staining (untreated background subtracted) [8, 13]: 54%; % of Annexin V + PI staining (untreated background subtracted) [8, 14]: 46%
